Patent publication US20250230246A1 (SAMYANG BIOPHARM USA, published 2025)

B1: SYB-010 (antibody, human IgG1, kappa)
heavy: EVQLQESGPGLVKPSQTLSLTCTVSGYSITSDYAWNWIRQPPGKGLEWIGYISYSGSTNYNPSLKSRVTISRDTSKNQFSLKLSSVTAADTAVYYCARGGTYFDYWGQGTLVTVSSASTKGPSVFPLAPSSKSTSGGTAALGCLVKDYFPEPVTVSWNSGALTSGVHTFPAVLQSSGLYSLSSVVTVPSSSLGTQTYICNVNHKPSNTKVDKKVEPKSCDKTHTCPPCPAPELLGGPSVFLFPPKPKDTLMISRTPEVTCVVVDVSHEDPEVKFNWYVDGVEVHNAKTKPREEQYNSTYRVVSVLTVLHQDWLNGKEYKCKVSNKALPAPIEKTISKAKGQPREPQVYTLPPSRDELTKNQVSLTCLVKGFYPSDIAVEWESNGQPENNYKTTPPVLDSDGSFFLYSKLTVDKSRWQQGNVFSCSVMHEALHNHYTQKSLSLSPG
light: DVVMTQSPSTLSASVGDRVTITCRASAHINNWLAWYQQKPGKAPKLLISDATSLESGVPSRFSGSGSGKEYTLTISSLQPDDFATYYCQHYWSTPWTFGQGTKVEIKRTVAAPSVFIFPPSDEQLKSGTASVVCLLNNFYPREAKVQWKVDNALQSGNSQESVTEQDSKDSTYSLSSTLTLSKADYEKHKVYACEVTHQGLSSPVTKSFNRGEC
notes: also called SYB-010 Fc wildtype
B2: SYB-011 (antibody, human IgG1, kappa, L234A L235A)
heavy: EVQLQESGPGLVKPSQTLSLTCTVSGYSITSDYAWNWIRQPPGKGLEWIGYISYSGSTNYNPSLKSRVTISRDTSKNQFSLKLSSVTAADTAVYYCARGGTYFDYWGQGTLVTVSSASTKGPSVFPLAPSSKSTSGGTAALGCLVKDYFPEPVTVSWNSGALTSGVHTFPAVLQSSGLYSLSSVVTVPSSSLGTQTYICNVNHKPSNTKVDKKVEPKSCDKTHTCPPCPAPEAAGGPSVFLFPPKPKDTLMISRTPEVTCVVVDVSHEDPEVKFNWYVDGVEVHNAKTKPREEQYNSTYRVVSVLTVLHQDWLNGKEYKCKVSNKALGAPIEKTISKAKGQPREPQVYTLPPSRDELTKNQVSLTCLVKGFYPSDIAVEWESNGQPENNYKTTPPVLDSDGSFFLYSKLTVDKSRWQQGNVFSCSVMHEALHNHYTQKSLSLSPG
light: B1 light
notes: Positions are EU index numbers; also called SYB-011 Fc mutant; effectorless anti-MIC antibody

How the values were obtained:
MICB*005 = MICB*005 (human); experiment: kinetic binding assay (ka, kd, Rmax in RU; method not named)
MICA*008 = MICA*008 (human); experiment: as above
Human CD64 (FcγRI) [1] = molecular target: T1, Human CD64 (FcγRI) (human, UniProt P12314 16-288, limits assumed); experiment: as above
T1 sequence (P12314 16-288 limits assumed): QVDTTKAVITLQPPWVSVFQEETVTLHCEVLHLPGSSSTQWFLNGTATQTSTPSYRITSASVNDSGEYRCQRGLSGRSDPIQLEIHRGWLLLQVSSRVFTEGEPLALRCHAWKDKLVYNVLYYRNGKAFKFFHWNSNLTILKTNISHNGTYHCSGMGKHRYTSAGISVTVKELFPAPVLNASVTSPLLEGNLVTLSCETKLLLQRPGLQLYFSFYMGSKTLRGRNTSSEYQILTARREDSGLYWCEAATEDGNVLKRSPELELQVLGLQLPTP

Human CD32a (FcγRIIA) [2] = molecular target: T2, Human CD32a (FcγRIIA) (human, UniProt P12318 34-217, limits assumed); experiment: as above
T2 sequence (looked up): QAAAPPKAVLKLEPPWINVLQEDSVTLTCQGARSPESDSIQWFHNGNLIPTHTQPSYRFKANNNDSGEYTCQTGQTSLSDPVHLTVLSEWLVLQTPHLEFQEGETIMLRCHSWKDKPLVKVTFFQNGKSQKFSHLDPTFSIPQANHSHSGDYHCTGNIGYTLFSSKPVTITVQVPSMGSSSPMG

Human CD64 (FcγRI) [3] = molecular target: T1, Human CD64 (FcγRI); experiment: kinetic binding assay (Table 2); ND = not detectable
Human CD32a (FcγRIIA) [4] = molecular target: T2, Human CD32a (FcγRIIA); experiment: as above

Row | Binder | Kd (MICB*005) [nM] | koff (MICB*005) [s⁻¹] | kon (MICB*005) [M⁻¹ s⁻¹] | Kd (MICA*008) [nM] | koff (MICA*008) [s⁻¹] | kon (MICA*008) [M⁻¹ s⁻¹] | Kd (Human CD64 (FcγRI) [1]) [nM] | koff (Human CD64 (FcγRI) [1]) [s⁻¹] | kon (Human CD64 (FcγRI) [1]) [M⁻¹ s⁻¹] | Kd (Human CD32a (FcγRIIA) [2]) [nM] | koff (Human CD32a (FcγRIIA) [2]) [s⁻¹] | kon (Human CD32a (FcγRIIA) [2]) [M⁻¹ s⁻¹] | binding result (Human CD64 (FcγRI) [3]) | binding result (Human CD32a (FcγRIIA) [4])
1 | B1 | 21 | 0.0394 | 1.88e+06 | 0.98 | 0.000627 | 639000 | 1.61 | 0.00133 | 825000 | 1540 | 0.772 | 500000 |  | 
2 | B2 | 19.8 | 0.0939 | 4.74e+06 | 1.04 | 0.000617 | 596000 |  |  |  |  |  |  | no binding | no binding
